{
  "source": "paper PMC11220700",
  "about": "“Activation and Purification of ß‐Glucocerebrosidase by Exploiting its Transporter LIMP‐2 – Implications for Novel Treatment Strategies in Gaucher's and Parkinson's Disease” (Advanced Science, 2024)",
  "molecular_target": "imiglucerase/Cerezyme (recombinant GCase, Sanofi Genzyme) (Homo sapiens) (UniProt P04062)",
  "sequence (P04062 other isoform, or with tags, fused parts or gaps)": "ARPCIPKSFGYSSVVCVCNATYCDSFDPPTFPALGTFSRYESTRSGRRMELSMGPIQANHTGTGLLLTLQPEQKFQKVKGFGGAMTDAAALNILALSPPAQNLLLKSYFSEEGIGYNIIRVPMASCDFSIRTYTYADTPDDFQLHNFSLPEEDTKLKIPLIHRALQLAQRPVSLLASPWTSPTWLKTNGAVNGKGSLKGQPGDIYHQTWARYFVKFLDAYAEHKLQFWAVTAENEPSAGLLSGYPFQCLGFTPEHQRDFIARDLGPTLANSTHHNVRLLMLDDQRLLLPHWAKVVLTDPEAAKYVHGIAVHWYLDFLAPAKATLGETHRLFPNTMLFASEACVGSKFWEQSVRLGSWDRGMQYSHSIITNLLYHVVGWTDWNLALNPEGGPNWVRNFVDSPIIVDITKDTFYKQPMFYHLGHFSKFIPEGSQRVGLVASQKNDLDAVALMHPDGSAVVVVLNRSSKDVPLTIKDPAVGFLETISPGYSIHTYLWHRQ",
  "test": "MST",
  "conditions": "Fc fusion",
  "data": [
    {"substance": "sLIMP‐2‐FC (Sino Biological #11063‐H03H)", "values": [
      {"measurement": "Kd", "result": 1380, "unit": "nM"}
    ]}
  ]
}
